To fix the notation:
T1: biotinylated IL-22 with an N-terminal His/FLAG tag (bio.IL-22H/F) (human, UniProt Q9GZX6 34-179, biotinylated (site not stated))
T1 construct: not shown: N-terminal His/FLAG tag
T1 sequence: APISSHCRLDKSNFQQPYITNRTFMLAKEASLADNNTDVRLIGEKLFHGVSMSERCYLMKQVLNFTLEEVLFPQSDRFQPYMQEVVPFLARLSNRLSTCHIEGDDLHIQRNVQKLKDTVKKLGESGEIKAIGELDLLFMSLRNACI

B1: GIL92 scFv, fully germlined (scFv)
scFv: QVQLVQSGAEVKKPGASVKVSCKASGYTFTDYYMHWVRQAPGQGLEWVGWINPYTGGAFYAQKFRGRVTMTRDTSISTAYMELSRLRSDDTAVYYCAREPEKFDFWGGDNWGRGTLVTVSSGGGGSGGGGSGGGGSAQAVLTQPPSVSGAPGQRVTISCTGSSSNIGAGYGVHWYQQLPGTAPKLLIYGNSNRPSGVPDRFSGSKSGTSASLAITGLQAEDEADYYCQSYDSSLSGYVFGGGTQLTVLSA
B2: GIL16 scFv, fully germlined (scFv)
scFv: QVQLVQSGAEVKKPGASVKVSCKASGYTFTSYGISWVRQAPGQGLEWMGWISAYTGNTNYAQKFQGRVTMTTDTSTSTAYMELRSLRSDDTAVYYCARDRGYYDAFDIWGQGTLVTVSSGGGGSGGGGSGGGGSDIQMTQSPSTLSASVGDRVTITCRASEGIYHWLAWYQQKPGKAPKLLIYKASSLASGVPSRFSGSGSGTEFTLTISSLQPDDFATYYCQQYSNYPLTFGGGTKVEIKRA
B3: GIL01 scFv, fully germlined (scFv)
scFv: QVQLVESGGGLVKPGGSLRLSCAASGFTFSDYYMSWIRQAPGKGLEWVSAISGSGGSTYYADSVKGRITISRDNAKNSLYLQMNSLRAEDTAVYYCARGLWVWDPLDYWGRGTLVTVSSGGGGSGGGGSGGGGSDIQMTQSPSTLSASVGDRVTITCRASEGIYHWLAWYQQKPGKAPKLLIYKASSLASGVPSRFSGSGSGTDFTLTISSLQPDDFATYYCQQYSNYPLTFGGGTKVEIKRA
B4: GIL68 scFv, fully germlined (scFv)
scFv: QVQLVQSGAEVKKPGASVKVSCKASGYTFSDYYIHWVRQAPGQGLEWMGWVNPDTGGTRYAQKFQGRVTMTRDMSISTAYMELSRLRSDDTAVYYCARDLTGFDPFDIWGQGTLVTVSSGGGGSGGGGSGGGGSASSVLTQPPSVSVAPGKTARITCGGNNFRNKRVHWYQQKPGQAPVLVIYYDSDRPSGIPERFSGSRSGNTATLTISRVEAGDEADYYCQVWDSSTDRPLFGGGTKLTVLGA
B5: GIL60 scFv, fully germlined (scFv)
scFv: EVQLVESGGGVVRPGGSLRLSCAASGFTFDDYGMNWVRQAPGKGLEWVSGVNWNGGTRDYAASVKGRFTISRDNAKNSLYLQMNSLRAEDTALYHCARGWYSGSFYYFGYWGRGTLVTVSSGGGGSGGGGSGGGGSAQAALTQPASVSGSPGQSITISCTGASGDVGAYNFVSWYQQHPGKAPKLIIYDVNKRPSGVSNRFSGSKSGNTASLTISGLQAEDEADYYCSSYTSTFSVVFGGGTKLTVLGA
B6: GIL60 scFv (non-germlined parent) (scFv)
scFv: EVQLVESGGGVVRPGGSLRLSCAASGFTFDDYGMNWVRQAPGKGLEWVSGVNGNGGTRDYAASVKGRFTISRDNAKNSLYLQMNSLRAEDTALYYCARGWYSGSFYYFGYWGRGTLVTVSSGGGGSGGGGSGGGGSAQAVLTQPSSVSGSPGQSITISCTGASGDVGAYNFVSWYQQHPGKTPKLIIYDVNKRPSGVSNRFSGSKSGNTASLTISGLQAEDESDYYCSSYTSTFSVVFGGGTKVTVLGAA
B7: GIL01 scFv (non-germlined parent) (scFv)
scFv: EVQLVESGGGLVTPGGSLRLSCAASGFTFSDYYMSWIRQAPGRGLEWVSAISGSGGSTYYADSVKGRITISRDNAKNSLYLQMSSLRSEDTAVYYCARGLWVWDPLDYWGRGTLVTVSSGGGGSGGGGSGGGGSDIQMTQSPSTLSASIGDRVTITCRASEGIYHWLAWYQQKPGKAPKLLIYKASSLASGAPSRFSGSGSGTDFTLTISSLQPDDFATYYCQQYSNYPLTFGGGTKLEIKRAAA
notes: also called GIL 1
B8: GIL16 scFv (non-germlined parent) (scFv)
scFv: QVQLVESGAEVKKPGASVKVSCKASGYTFTSYGISWVRQAPGQGLEWMGWISAYTGNTNYAQKFQGRVTMTTDTSTSTAYMELRSLRSDDTAVYYCARDRGYYDAFDIWGQGTLVTVSSGGGGSGGGGSGGGGSDIQMTQSPSTLSASIGDRVTITCRASEGIYHWLAWYQQKPGKAPKLLIYKASSLASGAPSRFSGSGSGTDFTLTISSLQPDDFATYYCQQYSNYPLTFGGGTKLEIKRAAA
B9: GIL92 scFv (non-germlined parent) (scFv)
scFv: QVQLVQSGAEVKKPGASVKVSCKASGYTFTDYYMHWVRQAPGQGLEWVGWINPYTGGAFYAQKFRGRVTMTRDTSINTAYMELSRLGSDDTAVYYCAREPEKFDFWGGDNWGRGTMVTVSSGGGGSGGGGSGGGGSAQAVLTQPSSVSGAPGQRVTISCTGSSSNIGAGYGVHWYQQLPGTAPKLLIYGNSNRPSGVPDRFSGSKSGTSASLAITGLQAEDEADYYCQSYDSSLSGYVFGTGTQLTVLSAAA
B10: GIL01 IgG (non-germlined parent) (antibody, V domains shown)
VH: EVQLVESGGGLVTPGGSLRLSCAASGFTFSDYYMSWIRQAPGRGLEWVSAISGSGGSTYYADSVKGRITISRDNAKNSLYLQMSSLRSEDTAVYYCARGLWVWDPLDYWGRGTLVTVSS
VL: DIQMTQSPSTLSASIGDRVTITCRASEGIYHWLAWYQQKPGKAPKLLIYKASSLASGAPSRFSGSGSGTDFTLTISSLQPDDFATYYCQQYSNYPLTFGGGTKLEIKR
notes: Human IgG4 heavy chain constant domain
B11: GIL16 IgG (non-germlined parent) (antibody, V domains shown)
VH: QVQLVESGAEVKKPGASVKVSCKASGYTFTSYGISWVRQAPGQGLEWMGWISAYTGNTNYAQKFQGRVTMTTDTSTSTAYMELRSLRSDDTAVYYCARDRGYYDAFDIWGQGTLVTVSS
VL: B10 VL
notes: as for B10
B12: GIL60 IgG (non-germlined parent) (antibody, V domains shown)
VH: EVQLVESGGGVVRPGGSLRLSCAASGFTFDDYGMNWVRQAPGKGLEWVSGVNWNGGTRDYAASVKGRFTISRDNAKNSLYLQMNSLRAEDTALYYCARGWYSGSFYYFGYWGRGTLVTVSS
VL: QAVLTQPSSVSGSPGQSITISCTGASGDVGAYNFVSWYQQHPGKTPKLIIYDVNKRPSGVSNRFSGSKSGNTASLTISGLQAEDESDYYCSSYTSTFSVVFGGGTKVTVLG
notes: as for B10
B13: GIL45 IgG (non-germlined parent) (antibody, V domains shown)
VH: QMQLVQSGGGVVQPGRSLRLSCAASGFTFSNYGMYWVRQAPGKGLEWVAHIWYDGSNEKYADSVKGRMTVSRDNSRNTLYLQMNSLRAEDTAVYYCATEQHWITAFDIWGKGTLVTVSS
VL: QSVLTQPASVSGSPGQSITISCTGTSSDVGGYNYVSWYQQHPGKAPKLMIYEGSKRPSGVSNRFSGSKSGNTASLTISGLQAEDEADYYCSSYTTRSTRVFGGGTKLTVLG
notes: as for B10

The values below come from US20070243589A1 (Pfizer, published 2007).

For one assay, the target named is T1, biotinylated IL-22 with an N-terminal …. Put plainly: biotinylated IL-22 binding IL-22 receptor complex competition assay, purified scFv, fully germlined. As to the method:
(§1) Microtiter plates were coated with an IL-22 receptor complex antibody (1 μg/ml in PBS), and incubated for 1.5 hours at room temperature. Plates were washed three times in PBST, and blocked for 1 hour at room temperature with 2% MPBS. After a further 3 washes, diluted cell conditioned medium containing an IL-22 receptor complex was added and incubated overnight at 4° C. Crude scFv supernatants were prepared as described above. The following day, 25 μl of diluted scFv sample and 25 μl of bio.IL-22H/F (6 ng/ml) were added to the washed plates, and incubated for 1.5 hours at room temperature. Plates were washed 3 times in PBST, then binding of bio.IL-22H/F to the IL-22 receptor complex was detected with Europium-Streptavidin and the DELFIA® reagent kit (PerkinElmer). Time Resolved Fluorescence was measured using a Victor 2™ Plate Reader (Perkin Elmer).
(§2) Sequence data for the six parent clones was used to identify the nearest germline sequence for the heavy and light chain of each clone. Appropriate mutations were made using standard site directed mutagenesis techniques with the appropriate mutagenic primers. Mutation of sequences was confirmed by sequence analysis. Purified scFv from the germlined parent clones were tested in the biotinylated IL-22 binding IL-22 receptor complex competition assay as described earlier, in order to establish the clone potency as measured by IC₅₀ values in the assay.
B1 returned a half-maximal inhibitory concentration (IC50) of 40 nM.
Still for that read-out and setting: as for B2, the figure is 38 nM.
Still for that read-out and setting: as for B3, the figure is 143 nM.
The same measure, in the same setting: as for B4, the figure is 14 nM; as for B5, 82 nM.

The next assay shares this target. Kind of assay: IL-22 receptor complex inhibition assay (bio.IL-22H/F binding to IL-22 receptor complex, DELFIA), scFv. As to the method: (§3) Both the IL-22/IL-22R binding assay (described above) and the IL-22/IL-22 receptor complex assay (described below) were used. ScFv concentrations were titrated in order to establish the clone potencies as measured by assay IC₅₀ values. These were determined using GraphPad Prism software and four-parameter logistic equation curve fitting.
as §1
Molecule B6 had a 50% inhibitory concentration (IC50) of 43 nM.
Molecule B7 yielded a 50% inhibitory concentration (IC50) of 104 nM.
In turn, B8 registered a concentration for half-maximal inhibition (IC50) of 49 nM.
On to B9, for which the half-inhibitory concentration (IC50) came to 16 nM.

The target is the same in another assay. Kind of assay: biotinylated IL-22 binding IL-22 receptor complex competition assay, purified scFv, parent. As to the method: as §1, §2
Consider B6, for which the IC50 turned out to be 51 nM.
The same measure, in the same setting: as for B7, the figure is 124 nM; as for B8, 44 nM.
In the case of B9, the IC50 came to 18 nM.

The target is the same in a further assay. Put plainly: IL-22 receptor complex inhibition assay (bio.IL-22H/F binding to IL-22 receptor complex, DELFIA), IgG. As to the method:
Potency of purified IgG was verified in the biochemical IL-22 receptor complex inhibition assay as described below. IgG concentrations were titrated in order to obtain potency values.
as §1
In turn, B10 showed a half-maximal inhibitory concentration (IC50) of 13 nM.
B11 showed an IC50 of 10 nM.
On the same count and under the same terms, as for B12, the figure is 15 nM; as for B13, 180 nM.

The target is the same in the next assay. Kind of assay: DELFIA competition assay: scFv titrated against bio.IL-22H/F binding to the captured IL-22 receptor complex. On the procedure:
as §1
Purified scFv from positive clones identified from the screening were tested in the DELFIA® IL-22 receptor complex competition assay as described above. A titration of scFv concentrations was used in order to establish the clone potency as measured by IC₅₀ values in the assay. Fourteen optimized clones were designated 097D09, 062A09, 062G05, 087B03, 367D04, 368D04, 166B06, 166G05, 375G06, 376B10, 354A08, 355B06, 355E04, and 356A11.
Turning to B6, the IC50 was 30.8 nM.
Molecule B7 had an IC50 of 129 nM.
Take B8: the IC50 is 25.9 nM.
The same measure, in the same setting: the figure for B9 is 15.3 nM.

The target is the same in another assay. The description is as above. This is another data set of the same source. As to the method: as §3, §1
Molecule B6 gave a 50% inhibitory concentration (IC50) of 60 nM.
Consider B7, for which the half-maximal inhibitory concentration (IC50) turned out to be 95 nM.
Turning to B8, the concentration for half-maximal inhibition (IC50) amounted to 55 nM.
As for B9, the IC50 came out at 40 nM.

What is called IC50 is the concentration that inhibits the measured activity by half.
